Laboratory results as given in US20110243941A1.

Target: wild type CH1-CH3 Fc fusion protein displayed on yeast (pYD-CH1) (human)
Test: FACS titration 1.4 to 0.0006 µM on yeast-displayed Fc, MFI, nonlinear regression

In the case of “soluble FcγRIIIA tetrameric complex (biotinylated FcγRIIIA-AVITAG on streptavidin-phycoerythrin) (from UniProt P08637 17-203) (receptor)”, the Kd is reported as 6 nM.
